Earlier results as cited in PMC10380471.
Read-outs that look alike come from different tables or passages of the source. Blank lines part the entries; values can stand above or below the substance they belong to.

Tests used:
[1] = biological target: consensus peptide
[2] = biological target: consensus peptide; remark: listed apart in the source
[3] = biological target: consensus peptide; remark: listed apart in the source

Chain of Pim-1 (P11309 whole entry): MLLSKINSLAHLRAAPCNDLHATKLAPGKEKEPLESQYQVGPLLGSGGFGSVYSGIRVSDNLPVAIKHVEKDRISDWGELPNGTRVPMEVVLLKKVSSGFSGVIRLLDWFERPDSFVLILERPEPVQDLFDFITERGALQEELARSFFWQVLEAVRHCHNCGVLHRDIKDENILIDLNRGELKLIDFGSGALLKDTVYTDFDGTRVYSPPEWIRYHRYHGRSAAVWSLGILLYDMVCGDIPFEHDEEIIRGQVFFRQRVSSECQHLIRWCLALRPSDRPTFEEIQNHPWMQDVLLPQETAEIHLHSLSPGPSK
Chain of Pim-2 (Q9P1W9 whole entry): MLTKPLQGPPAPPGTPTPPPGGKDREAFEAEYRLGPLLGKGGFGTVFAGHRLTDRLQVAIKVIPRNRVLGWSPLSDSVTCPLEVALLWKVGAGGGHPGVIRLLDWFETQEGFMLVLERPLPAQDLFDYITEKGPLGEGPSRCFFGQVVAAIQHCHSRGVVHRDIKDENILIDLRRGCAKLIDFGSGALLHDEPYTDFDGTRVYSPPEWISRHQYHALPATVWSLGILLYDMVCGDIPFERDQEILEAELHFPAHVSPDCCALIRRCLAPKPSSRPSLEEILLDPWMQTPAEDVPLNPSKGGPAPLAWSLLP

Kd [1]: 0.058 µM
Substance: Pim-1 (from UniProt P11309)

Kd [2]: 0.64 µM
Substance: Pim-2 (from UniProt Q9P1W9)

Kd [3]: 0.039 µM
Substance: Pim-3 (from UniProt Q86V86)
